Experimental data reported in patent publication US20210403549A1.

Biological target: low density lipoprotein (LDL) (UniProt P04114)
Assay: bio-layer interferometry with LDL; beside the traces: clear dose-dependent binding

Chain of low density lipoprotein (LDL) (P04114 28-4563 limits assumed): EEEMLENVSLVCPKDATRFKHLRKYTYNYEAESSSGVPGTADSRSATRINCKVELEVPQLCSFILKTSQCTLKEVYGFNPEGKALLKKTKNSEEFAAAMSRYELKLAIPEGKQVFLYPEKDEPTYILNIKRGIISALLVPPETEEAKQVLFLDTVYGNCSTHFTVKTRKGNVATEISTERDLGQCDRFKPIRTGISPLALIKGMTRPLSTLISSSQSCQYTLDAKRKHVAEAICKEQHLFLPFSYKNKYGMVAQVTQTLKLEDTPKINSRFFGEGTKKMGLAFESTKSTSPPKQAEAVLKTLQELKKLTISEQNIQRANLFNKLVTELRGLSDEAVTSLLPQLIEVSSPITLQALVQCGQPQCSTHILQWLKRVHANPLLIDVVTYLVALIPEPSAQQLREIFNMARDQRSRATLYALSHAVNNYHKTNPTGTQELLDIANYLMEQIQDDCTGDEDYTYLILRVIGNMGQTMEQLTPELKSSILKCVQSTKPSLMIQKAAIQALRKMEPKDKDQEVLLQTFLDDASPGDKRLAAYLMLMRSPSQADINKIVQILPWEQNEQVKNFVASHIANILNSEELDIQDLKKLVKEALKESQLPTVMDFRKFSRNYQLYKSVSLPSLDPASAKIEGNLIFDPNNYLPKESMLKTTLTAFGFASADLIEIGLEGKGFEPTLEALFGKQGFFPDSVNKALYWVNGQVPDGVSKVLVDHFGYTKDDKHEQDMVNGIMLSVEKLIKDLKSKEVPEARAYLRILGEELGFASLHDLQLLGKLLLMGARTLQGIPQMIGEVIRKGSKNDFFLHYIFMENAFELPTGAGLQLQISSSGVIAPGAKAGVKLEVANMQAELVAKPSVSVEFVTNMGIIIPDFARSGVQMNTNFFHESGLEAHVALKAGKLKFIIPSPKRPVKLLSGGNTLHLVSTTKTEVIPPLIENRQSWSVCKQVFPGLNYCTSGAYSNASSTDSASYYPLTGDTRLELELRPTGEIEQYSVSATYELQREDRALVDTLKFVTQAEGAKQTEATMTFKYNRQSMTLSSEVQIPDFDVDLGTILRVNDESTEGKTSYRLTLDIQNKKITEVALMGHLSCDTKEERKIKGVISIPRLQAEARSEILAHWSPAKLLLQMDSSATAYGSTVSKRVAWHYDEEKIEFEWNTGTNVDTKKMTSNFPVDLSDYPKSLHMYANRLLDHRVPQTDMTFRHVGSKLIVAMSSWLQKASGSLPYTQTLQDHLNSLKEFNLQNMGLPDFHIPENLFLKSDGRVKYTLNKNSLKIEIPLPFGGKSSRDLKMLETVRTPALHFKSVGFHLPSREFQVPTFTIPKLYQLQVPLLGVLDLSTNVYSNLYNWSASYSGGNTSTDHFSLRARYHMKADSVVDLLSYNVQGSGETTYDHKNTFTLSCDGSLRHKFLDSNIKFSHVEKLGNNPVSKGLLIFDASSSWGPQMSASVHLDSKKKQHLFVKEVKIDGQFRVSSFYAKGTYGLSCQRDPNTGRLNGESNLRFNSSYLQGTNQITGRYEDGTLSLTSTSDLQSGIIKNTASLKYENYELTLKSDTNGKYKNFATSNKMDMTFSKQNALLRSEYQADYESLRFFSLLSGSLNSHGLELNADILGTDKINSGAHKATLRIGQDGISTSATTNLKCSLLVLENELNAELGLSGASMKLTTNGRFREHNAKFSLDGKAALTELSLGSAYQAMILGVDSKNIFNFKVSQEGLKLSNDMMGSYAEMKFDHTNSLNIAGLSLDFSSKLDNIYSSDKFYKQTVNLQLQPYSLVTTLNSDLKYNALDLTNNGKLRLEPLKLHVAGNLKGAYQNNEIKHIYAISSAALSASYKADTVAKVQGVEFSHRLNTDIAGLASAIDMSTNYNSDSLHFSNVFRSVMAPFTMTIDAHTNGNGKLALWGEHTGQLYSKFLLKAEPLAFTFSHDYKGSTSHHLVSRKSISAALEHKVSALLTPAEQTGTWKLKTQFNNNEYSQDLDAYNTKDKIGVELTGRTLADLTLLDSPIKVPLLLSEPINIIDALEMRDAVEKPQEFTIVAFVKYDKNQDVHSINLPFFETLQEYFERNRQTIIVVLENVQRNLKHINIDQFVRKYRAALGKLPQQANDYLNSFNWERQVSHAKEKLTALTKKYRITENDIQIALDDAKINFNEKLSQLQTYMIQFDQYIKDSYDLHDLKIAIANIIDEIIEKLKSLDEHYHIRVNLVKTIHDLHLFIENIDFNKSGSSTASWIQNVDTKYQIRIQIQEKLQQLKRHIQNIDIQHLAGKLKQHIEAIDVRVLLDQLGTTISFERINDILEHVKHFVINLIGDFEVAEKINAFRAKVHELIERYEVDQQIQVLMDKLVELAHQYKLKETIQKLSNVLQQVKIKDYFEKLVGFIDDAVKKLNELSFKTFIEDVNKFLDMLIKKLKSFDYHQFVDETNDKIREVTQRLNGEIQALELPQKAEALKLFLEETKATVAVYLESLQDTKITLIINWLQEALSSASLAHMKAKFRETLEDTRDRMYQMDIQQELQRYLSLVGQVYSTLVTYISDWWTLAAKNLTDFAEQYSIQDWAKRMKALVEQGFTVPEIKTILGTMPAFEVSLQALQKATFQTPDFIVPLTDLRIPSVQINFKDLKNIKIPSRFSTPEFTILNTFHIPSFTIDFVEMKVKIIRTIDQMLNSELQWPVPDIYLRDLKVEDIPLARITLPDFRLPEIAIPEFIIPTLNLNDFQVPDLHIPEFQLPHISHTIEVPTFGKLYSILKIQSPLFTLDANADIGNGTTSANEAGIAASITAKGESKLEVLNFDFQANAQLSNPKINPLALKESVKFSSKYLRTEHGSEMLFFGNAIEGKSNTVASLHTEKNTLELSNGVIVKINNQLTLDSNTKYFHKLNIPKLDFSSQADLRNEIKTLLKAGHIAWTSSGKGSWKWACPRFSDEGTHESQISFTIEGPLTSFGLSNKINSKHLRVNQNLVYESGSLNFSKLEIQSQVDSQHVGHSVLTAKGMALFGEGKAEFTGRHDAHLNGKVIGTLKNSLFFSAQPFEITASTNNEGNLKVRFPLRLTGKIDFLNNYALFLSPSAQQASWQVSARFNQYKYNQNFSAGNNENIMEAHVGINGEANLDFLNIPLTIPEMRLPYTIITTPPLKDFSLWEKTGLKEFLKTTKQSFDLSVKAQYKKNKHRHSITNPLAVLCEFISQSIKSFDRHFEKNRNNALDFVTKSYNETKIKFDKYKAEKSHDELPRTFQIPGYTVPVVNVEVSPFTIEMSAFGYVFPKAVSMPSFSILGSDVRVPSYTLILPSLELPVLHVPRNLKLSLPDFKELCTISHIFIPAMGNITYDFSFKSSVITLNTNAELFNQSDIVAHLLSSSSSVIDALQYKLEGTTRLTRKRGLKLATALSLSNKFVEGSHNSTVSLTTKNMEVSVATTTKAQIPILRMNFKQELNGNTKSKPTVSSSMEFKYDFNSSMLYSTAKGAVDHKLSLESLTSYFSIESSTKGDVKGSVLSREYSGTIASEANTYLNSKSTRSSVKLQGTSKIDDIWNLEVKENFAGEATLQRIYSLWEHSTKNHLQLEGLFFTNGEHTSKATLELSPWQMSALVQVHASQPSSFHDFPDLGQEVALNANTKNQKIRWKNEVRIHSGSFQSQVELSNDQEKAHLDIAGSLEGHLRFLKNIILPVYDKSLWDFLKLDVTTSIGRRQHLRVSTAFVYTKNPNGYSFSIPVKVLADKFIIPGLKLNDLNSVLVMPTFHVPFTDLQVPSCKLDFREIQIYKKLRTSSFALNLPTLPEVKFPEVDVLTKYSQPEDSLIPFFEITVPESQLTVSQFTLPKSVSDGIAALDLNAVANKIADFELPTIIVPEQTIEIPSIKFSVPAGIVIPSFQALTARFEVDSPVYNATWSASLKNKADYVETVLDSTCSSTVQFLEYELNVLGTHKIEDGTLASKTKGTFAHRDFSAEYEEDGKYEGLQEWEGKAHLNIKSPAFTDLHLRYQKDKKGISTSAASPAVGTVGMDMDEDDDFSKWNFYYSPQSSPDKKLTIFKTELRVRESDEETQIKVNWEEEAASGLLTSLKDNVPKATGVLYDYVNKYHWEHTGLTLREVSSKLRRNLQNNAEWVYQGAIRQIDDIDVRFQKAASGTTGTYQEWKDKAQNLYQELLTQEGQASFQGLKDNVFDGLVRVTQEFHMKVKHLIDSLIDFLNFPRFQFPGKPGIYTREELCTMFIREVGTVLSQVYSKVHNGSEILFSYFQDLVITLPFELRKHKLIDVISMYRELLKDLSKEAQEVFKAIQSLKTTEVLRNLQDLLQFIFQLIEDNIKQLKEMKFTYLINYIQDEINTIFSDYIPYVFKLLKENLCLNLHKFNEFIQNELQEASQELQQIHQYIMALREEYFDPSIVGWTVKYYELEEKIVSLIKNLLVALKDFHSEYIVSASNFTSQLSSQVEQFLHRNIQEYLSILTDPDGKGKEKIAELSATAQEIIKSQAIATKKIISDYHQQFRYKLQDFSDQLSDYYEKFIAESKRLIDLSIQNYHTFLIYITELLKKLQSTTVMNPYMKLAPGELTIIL

ALK1-E75A-hsIgG-Fc (Fc fusion)
Kd: 525 nM
